From publication PMC5691081 come the findings set out here.

For the test, the target named is GST-DIAPH3-NT. Description: GST pull-down with immunoblot quantification. To be noted: n = 3, parent: est. 1.0, read off a plot.

For “MBP-anillin (1–151) wild type (from UniProt Q9NQW6) K38A; R39A”, the ratio to parent worked out at 0.94. “MBP-anillin (1–151) wild type (from UniProt Q9NQW6) P43A; L44A”: the ratio to parent was 0.38. On the same count and under the same terms, the result for “MBP-anillin (1–151) wild type (from UniProt Q9NQW6) Q42A” reads 0.82. Consider “MBP-anillin (1–151) wild type (from UniProt Q9NQW6) R41A”, for which the ratio to parent was determined as 0.59. Turning to “MBP-anillin (1–151) wild type (from UniProt Q9NQW6) R41A; Q42A; P43A; L44A”, the ratio to parent (p = 0.0072 vs wt) was found to be 0.03.
